Test results: IntAct's records for PubMed 19581362

B1: Chemotaxis protein CheA (Escherichia coli (strain K12)), P07363 (parent)
chain: MSMDISDFYQTFFDEADELLADMEQHLLVLQPEAPDAEQLNAIFRAAHSIKGGAGTFGFSVLQETTHLMENLLDEARRGEMQLNTDIINLFLETKDIMQEQLDAYKQSQEPDAASFDYICQALRQLALEAKGETPSAVTRLSVVAKSEPQDEQSRSQSPRRIILSRLKAGEVDLLEEELGHLTTLTDVVKGADSLSAILPGDIAEDDITAVLCFVIEADQITFETVEVSPKISTPPVLKLAAEQAPTGRVEREKTTRSNESTSIRVAVEKVDQLINLVGELVITQSMLAQRSSELDPVNHGDLITSMGQLQRNARDLQESVMSIRMMPMEYVFSRYPRLVRDLAGKLGKQVELTLVGSSTELDKSLIERIIDPLTHLVRNSLDHGIELPEKRLAAGKNSVGNLILSAEHQGGNICIEVTDDGAGLNRERILAKAASQGLTVSENMSDDEVAMLIFAPGFSTAEQVTDVSGRGVGMDVVKRNIQKMGGHVEIQSKQGTGTTIRILLPLTLAILDGMSVRVADEVFILPLNAVMESLQPREADLHPLAGGERVLEVRGEYLPIVELWKVFNVAGAKTEATQGIVVILQSGGRRYALLVDQLIGQHQVVVKNLESNYRKVPGISAATILGDGSVALIVDVSALQAINREQRMANTAA
partner: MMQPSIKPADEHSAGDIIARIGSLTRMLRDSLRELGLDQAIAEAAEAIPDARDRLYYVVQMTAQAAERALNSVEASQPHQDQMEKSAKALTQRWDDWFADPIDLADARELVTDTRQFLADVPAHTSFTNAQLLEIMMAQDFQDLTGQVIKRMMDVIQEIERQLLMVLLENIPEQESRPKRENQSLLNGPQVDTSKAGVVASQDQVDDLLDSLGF

Variants of: B1
Conditions: with chez_ecoli cheZ

Row | Variant | effect of a mutation on the interaction
1 | L126C | decreasing interaction strength
2 | L123C | decreasing interaction strength
3 | Y118C | decreasing interaction strength
4 | R124C | decreasing interaction strength
